Laboratory results from the supplement of paper PMC9170038.

Tested on: K4 kissing-loop RNA reporter
Assay: apparent KD of K4 kissing-loop reporter; higher = weaker reporter binding
Conditions: Eterna round: R107
Protocol: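 RNA-MaP round R107: designed RNA switches with theophylline, tryptophan, arginine or FMN aptamers are transcribed on-chip within common flanks. They are titrated with a labelled K4 kissing-loop RNA reporter in RNA-MaP buffer (100 mM Tris pH 7.5, 80 mM KCl, 4 mM MgCl2), without ligand or with the indicated ligand. Median apparent KD per design.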

[1] = input ligand: theophylline 20 uM
[2] = input ligand: tryptophan 2.4 mM
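Also: bound reporter read as fluorescence of individual clusters on recovered sequencing chips by microscopy, with normalized cluster intensities fitted with a binding model.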

Sequence	apparent KD of K4 kissing-loop reporter (input ligand: FMN 200 uM) [µM]	apparent KD of K4 kissing-loop reporter (input ligand: arginine 13.2 mM) [µM]	apparent KD of K4 kissing-loop reporter (input ligand: none) [µM]	apparent KD of K4 kissing-loop reporter [1] [µM]	apparent KD of K4 kissing-loop reporter [2] [µM]
UGGUUAAGCAGUGAUGUUGCAAGUAAUGAUACCAGUUAAGAAGAGAACCCUUGGCAGCAUAAAGUGCGCUCUGAUGAGUGUGCUU [whbob_SS_Theo_A_w54]	0.197	0.218	0.24	0.239	0.179
UGGUUUGGAAGUGAUGUUUCUAUAAGUGAUACCAGACAAAAGAAAGUCCCUUGGCAGCACAAUGAUGCCAAGGAAACGGCAUGAU [#15 K4 Theophylline A Same State]	0.179	0.164	0.174	0.157	0.15
UGUAAGCGCGUAGAUACCAGCAAACGAGUGAUGUUCAAAAGAUUAAGGAAAAGAAAGUAAUGCCCUUGGCAGCUAAUCAUAAGCG [whbob_Ex_Theo_B_sa91]	0.304	0.316	0.449	0.397	0.247
UGUAAGCGCGUAGAUACCAGCAGACGAGUGAUGUUCAAGAGAUUAAGGAAAAGAAAGUAAUGCCCUUGGCAGCUAAUCAUAAGCG [whbob_Ex_Theo_B_sa93]	0.384	0.312	0.446	0.331	0.363
UGUACCGAGUUAGGAUAUGUCGUCGAAAGACGAAAUGGAGUGAUGUUCCUUAAACUGCGAAAGCAGACAGAAGGGAUUUGGUACU [FmnBS 29 U11+U77]	0.331	0.442	0.412	0.51	0.378
UGUCAUGGAAACAUGAACGUUGAUGUUCGACGAGGACCGGUACGGCCGCCACUCGAGUAAUAGUCAGUGAUGUUGACUGGGCUAA [KL-SSTryp-A form1 sub2]	0.146	0.216	0.219	0.25	0.14
UGUCAUUGGUCGGCCGCCACUUCGUGUGGAGUGAUGUUUUGUAGGUUGUGUUGAAAGGUAUGGUGAAGGACCGGGACCGAUGACU [FiskerMod 20 - Jieux - Same State - Tryptophan B]	0.651	0.384	0.496	1.08	0.525
UGUCAUUGGUCUGAUACCAGUACCCUUGGCAGCCAAGGAGUGAUGUUCCAAGGAUACCAGUACCCUUGGCAGCAGACCGAUGACU [TheoBS 25 #DoubleAptamer #SwitchBubble]	0.884	0.802	0.758	0.194	0.964
UGUCAUUGGUCUGAUACCAGUCCCUUGGCAGCCAAAUGGAGUGAUGUUCCAAGGAUACCAGACCCUUGGCAGCAGACCGAUGACU [TheoBS 26 #DoubleAptamer #SwitchBubble]	0.556	0.397	0.552	0.377	0.499
UGUGAACAAAAGUAGAGUGGACCACUAUAGCGAGGACCGGUACGGCCGCCACUCGUACAUGUAUUCAGUGAUGUUGAAAUGAGCU [whbob_EX_Tryp_A_t15]	0.2	0.319	0.268	0.362	0.15
UGUGAACAAAAGUAGAGUGGACCACUAUAGCGAGGACCGGUACGGCCGCCACUCGUAUAUAAAUUCAGUGAUGUUGAAAAGAGCU [Exclusion Tryptophan A GF1]	0.175	0.283	0.215	0.26	0.149
UGUGAGCUGUCGACAAAAGUCGACUAAAACGAGGAUAUGACGAAAGUCAGAAGGCGUCAAUAAUGGAGUGAUGUUCCUGCUCACU [FmnA 9 #SwitchBubble #K4Late]	0.256	0.404	0.552	0.453	0.401
UGUGGAGAAUAUGAUACCAGCAGUGAGAGAGAGGAAGUAUAGUGAUGUUAUAUGAGAGAAUGCCCUUGGCAGCAUAUGUAGUAGG [SSTheophylB.G]	0.209	0.162	0.207	0.208	0.188
UGUGUUUACCUGACUCAGUGAUGUUGAGAAGGAGCGUGCUAAAGCACAGGUAGGUCGCUCAACCUAAAUUCAGGUGAGCACUAAA	0.35	0.258	0.312	0.326	0.257
UGUUUUUACUGAAGGAGCGGCAAUUGAUACGUAGAUAUAGUGAUGUUAUAUAAGAUAGAGAGCCAGGUAGGUCGCAGAGUGUAUC [ExArgB.aB]	0.217	0.188	0.207	0.172	0.213
UUACUACCCAGUGAUGUUGGGUAGCGGCGGCGAGGACCGGUACGGCCGCCACUCGGCGCACGGGAGUGAUGUUCCUACCGUUAGG [Same state Tryptophan A GF 8]	0.514	0.455	0.604	0.747	0.294
UUAGUCAGAUUAUUAUUAGCCUGCGAGACUAAGGAUAUCCGAAUUCGGAGAAGGUAGUGAUGUUACUUUGGCAGGCACUGACAUU [AK8 Exc FMN A]	0.89	0.611	0.727	0.643	0.576
UUAGUCUAGAGAAGGAGCGAGUGAUGUUCGCAGCCCAAAUAAUAAUAAUAAUAAGGGCAUCCUCAGGUAGGUCGCUCUAGACAUU [AK5 Exc Arginine B]	0.335	0.29	0.334	0.354	0.292
UUAGUCUAGAGAAGGAGCGAGUGAUGUUCGCAUGCUAUGAUGAAUUCAUCAUAGUUUAAUCCUCAGGUAGGUCGCUCUAGACAUU [AK7 Exc Arginine B]	0.427	0.339	0.418	0.355	0.35
UUAGUUGAAAGUGAUACCAGACGAGUGAAGGGAAGAAAUUAAGUUGGAGUGAUGUUCCGCGUCCCUUGGCAGCACUUUGUAAUUU [Exclusion Theophylline B GF 22]	0.135	0.151	0.125	0.161	0.121
UUCCACCGAGAAGGAUAUUAUGCUGGACUUGUUUAAGUGUUAAAUAGUGAUGUUAUUUGAUCGGAAUAAGAAGGUCUCAAGUUGA [theeternabot_sameState_KL_FMN_B_44]	0.155	0.131	0.145	0.142	0.119
UUGAGCCGGACCGAAGUCCGGCUCUGCGAGCGAGGACCGGUACGGCCGCCACUCGGUGCAGUGAUGUUGCAUGGCCGCAAGGCCG [#2 Exclusion - Tryptophan A Attempt #8 (HarryS)]	0.424	0.287	0.418	0.339	0.401

Sequence	apparent KD of K4 kissing-loop reporter (input ligand: FMN 200 uM) [µM]	apparent KD of K4 kissing-loop reporter (input ligand: arginine 13.2 mM) [µM]	apparent KD of K4 kissing-loop reporter (input ligand: none) [µM]	apparent KD of K4 kissing-loop reporter [1] [µM]	apparent KD of K4 kissing-loop reporter [2] [µM]
UUGAGUGAUGUUCAAUUAAUGUGCAACGAUACCAGCUCAUAUGCUAGCCCUUGGCAGCGUGGUAACGUAAUUUUAUCAAAUGAUA [theeternabot_exclusion_KL_Theo_A_39]	0.232	0.199	0.198	0.205	0.145
UUGUCCGGGUGAUGGUCAUCACGUGGCGGGCGAGGACCGGUACGGCCGCCACUCGACUUUGCAGUGAUGUUGCAAACCGGACAAU [Exclusion - Tryptophan A (Freestyle 23)]	0.231	0.174	0.192	0.224	0.21
UUGUUUGGUUGAGAGGUUGGGCGAGAUGAUACCAGUAGAGAAGAGUACCCUUGGCAGCAUAGGAAAGAUAUAGUGAUGUUGUAUA [SSTheophA.Q]	0.354	0.313	0.357	0.165	0.309
UUGUUUUACUGAAGGAGCGGCAAUUGAUACGUAGAUAUAGUGAUGUUAUAUAAGAUAGAGAGCCAGGUAGGUCGCAGAUUUUUUU [ExArgB.V]	0.164	0.157	0.144	0.185	0.118
UUUAGGAGCGGUGUUGAUUAGGGAGCGGAAGGAGCGCCGAUUAUGGCAGGUAGGUCGCCGGAAUGUAGUGAUGUUGCAUAGAGGG [ExArgA.V]	0.214	0.186	0.185	0.154	0.166
UUUAUAAAGUCGGCCGCCACUGGAUUUAUGUUUGUUUCGUCUGGAUCAAAGUGAUGUUUUGAGUCCAGGACCGGGACAUUUGUUA [whbob_Ex_Tryp_B_w38]	0.0889	0.0748	0.0812	0.0735	0.113
UUUAUAUUGUCGGCCGCCACUGGAUUAAUAUUUGUAUAAUCUAGUUCAAAGUGAUGUUUUGAGUCCAGGACCGGGACAUUUGAUA [JR_Nu_ExcTryptoB_Sub029]	0.622	0.501	0.624	0.575	0.491
UUUCGGCUCUGAGGAUAUUCGGACAAAUAUAGUGAUGUUGUAUAAGGAGGAGGGUGUUGGCAGUGAGGAGAAGGCAGAGGAGGAU [#07 K4 FMN B Exclusion]	0.376	0.208	0.397	0.358	0.214
UUUCGGUUCUGAGGAUAUUCGGACAAAUAUAGUGAUGUUGUAUAAGGAGGAGGGUGUUGGCAGUGCGGAGAAGGCAGACCACGAU [ExFMNB.X]	0.869	0.72	0.747	0.575	0.621
UUUCGUCUCUGAGGAUAUCAGACGAGAGUGAUGUUCUCCCAAAGCCCAGUGAUGUUGGAUGCUAUCUGAGAAGGCAGUGGGCGAA [Same State FMN B GF 12]	0.227	0.584	0.554	0.634	0.508
UUUCGUUGAAGUGAUACCAGACUUGAAAGUGAUGUUUUCCAAUAAUUUAAAUUUUUAGCUGUCCCUUGGCAGCACAGUUUAUUUA [JR_Nu_ExcTheophyB_Sub025]	0.21	0.363	0.275	0.401	0.181
UUUCUUUUUUUGAUGUUUUUUGUAUAAUGGCAGGAUAUCGUAGAUGCGAGAAGGGCUUUUAUGCGUUAUGAGUGAUGUUUGUAGG [aaxazvmullin]	0.324	0.27	0.32	0.272	0.256
UUUGGUUUCUCGGCCGCCACUCGUGGGAAAUGGGCCUCAGGGAUAUAGUGAUGUUAUGUAAAGAAGAGGACCGGGAGAAGGAAGG [ExTryptoB.Dl]	0.3	0.253	0.306	0.208	0.233
UUUGUAUAGGGAAGGAGCGUGAAUGAGAAAGAAUAUAGUGAUGUUAUAUAGAAGAAAGAAUCACAGGUAGGUCGCCCGGAGGAGG [SSArgB.G]	0.484	0.363	0.371	0.482	0.337
UUUGUAUAGGGAAGGAGCGUGAAUGAUAAUGAAUAUAGUGAUGUUAUAUAUAAGAAAGAAUCACAGGUAGGUCGCCCGGAGGAGG [SSArgB.J]	0.612	0.41	0.668	1.35	0.428
UUUUAAAUGUCUGAUACCAGAGAAAAUAUAUGUAGUGAUGUUAUAUACAAAUUGAAUAAGCUCCCUUGGCAGCAGUAUUAAUUUU [AstrosExc-TheB#11]	0.493	0.643	0.713	0.662	0.493
UUUUAAAUGUCUGAUACCAGAGAAAAUUUAUGUAGUGAUGUUAUAUACAAAAUAAAUAAGCUCCCUUGGCAGCAGUAUUAAUUUU [AstrosExc-TheB#7]	0.465	0.449	0.465	0.357	0.443
UUUUAUUAAUACUUCUAGUGAUGUUAGAUACGAGGACCGGUACGGCCGCCACUCGCUUAUUGGUUUAUAUAUUUUAUAUUCUUUA [JR_SSTryptoA_Sub014]	0.327	0.362	0.342	0.369	0.281
UUUUGGUUCUGAGGAUAUUCGAAGAAAUAUAGUGAUGUUAUAUAAGGAGGAGGAUGUAGGGAGGAAGGAGAAGGCAGAAGAGGAG [ExFMNB.J]	1.04	0.915	0.88	0.377	0.48
UUUUUGGAGAAUUAUAGUGAUGUUAUGAAGAAGGAUAUCUAAAGAUGGAGAAGGUUUAAUAGUUAAGGGAUGGAGGGUGGGUGGG [ExFMNA.P]	0.282	0.155	0.293	0.221	0.194
UUUUUGGAGAAUUAUAGUGAUGUUAUGAAGGAGGAUAUCUGGAGAUGGAGAAGGCCUAGUGGCUCAGGGAUGGAGGGUGGGUGGG [ExFMNA.Y]	0.704	0.411	0.487	0.655	0.301
